Patent US20250339531A1, “DUX4 POLYPEPTIDES AND NUCLEIC ACIDS FOR TREATING INFLAMMATORY AND AUTOIMMUNE CONDITIONS” (Fred Hutchinson Cancer Center, priority 2021, published 2025)

Legend:
[1] = molecular target: Transcription intermediary factor 1-beta (Homo sapiens) (UniProt Q13263); experiment: anti-FLAG co-IP LC-MS, exp 4, +Dox +IFNG
[2] = molecular target: Prolyl 4-hydroxylase subunit alpha-1 (Homo sapiens) (UniProt P13674); experiment: anti-FLAG co-IP LC-MS, exp 4, +Dox +IFNG
[3] = molecular target: Histone acetyltransferase type B catalytic subunit (Homo sapiens) (UniProt O14929); experiment: anti-FLAG co-IP LC-MS, exp 4, +Dox +IFNG
[4] = molecular target: Heat shock protein HSP 90-beta (Homo sapiens) (UniProt P08238); experiment: anti-FLAG co-IP LC-MS, exp 4, +Dox +IFNG
[5] = molecular target: Eukaryotic initiation factor 4A-II (Homo sapiens) (UniProt Q14240); experiment: anti-FLAG co-IP LC-MS, exp 4, +Dox +IFNG
[6] = molecular target: T-complex protein 1 subunit gamma (Homo sapiens) (UniProt P49368); experiment: anti-FLAG co-IP LC-MS, exp 4, +Dox +IFNG
[7] = molecular target: Transportin-1 (Homo sapiens) (UniProt Q92973); experiment: anti-FLAG co-IP LC-MS, exp 4, +Dox +IFNG
[8] = molecular target: Calpain-2 catalytic subunit (Homo sapiens) (UniProt P17655); experiment: anti-FLAG co-IP LC-MS, exp 4, +Dox +IFNG
[9] = molecular target: Tubulin alpha chain (Homo sapiens) (UniProt F5H5D3); experiment: anti-FLAG co-IP LC-MS, exp 4, +Dox +IFNG
[10] = molecular target: 14-3-3 protein sigma (Homo sapiens) (UniProt P31947); experiment: anti-FLAG co-IP LC-MS, exp 4, +Dox +IFNG
[11] = molecular target: Spectrin beta chain (Homo sapiens) (UniProt Q01082); experiment: anti-FLAG co-IP LC-MS, exp 4, +Dox +IFNG
[12] = molecular target: Prostate tumor-overexpressed gene 1 protein (Homo sapiens) (UniProt Q86YD1); experiment: anti-FLAG co-IP LC-MS, exp 4, +Dox +IFNG
[13] = molecular target: 60S ribosomal protein L18 (Fragment) (Homo sapiens) (UniProt Q07020); experiment: anti-FLAG co-IP LC-MS, exp 3, +IFNg +Dox
[14] = molecular target: Serine/threonine-protein phosphatase 2A 65 kDa regulatory subunit A alpha isoform (Homo sapiens) (UniProt P30153); experiment: anti-FLAG co-IP LC-MS, exp 3, +IFNg +Dox
[15] = molecular target: Protein disulfide-isomerase (Homo sapiens) (UniProt P07237); experiment: anti-FLAG co-IP LC-MS, exp 3, +IFNg +Dox
[16] = molecular target: 60S ribosomal protein L13 (Homo sapiens) (UniProt P26373); experiment: anti-FLAG co-IP LC-MS, exp 3, +IFNg +Dox
[17] = molecular target: Histone acetyltransferase type B catalytic subunit (Homo sapiens) (UniProt O14929); experiment: anti-FLAG co-IP LC-MS, exp 3, +IFNg +Dox
[18] = molecular target: Ribonuclease inhibitor (Homo sapiens) (UniProt P13489); experiment: anti-FLAG co-IP LC-MS, exp 3, +IFNg +Dox
[19] = molecular target: Tubulin beta-4B chain (Homo sapiens) (UniProt P68371); experiment: anti-FLAG co-IP LC-MS, exp 3, +IFNg +Dox
[20] = molecular target: Spectrin alpha chain, non-erythrocytic 1 (Homo sapiens) (UniProt Q13813); experiment: anti-FLAG co-IP LC-MS, exp 3, +IFNg +Dox
Filamin-C (Homo sapiens) = Filamin-C (Homo sapiens) (UniProt Q14315); experiment: anti-FLAG co-IP LC-MS, exp 3, +IFNg +Dox
[21] = molecular target: Heat shock protein HSP 90-beta (Homo sapiens) (UniProt P08238); experiment: anti-FLAG co-IP LC-MS, exp 3, +IFNg +Dox
[22] = molecular target: Tubulin alpha-4A chain (Homo sapiens) (UniProt P68366); experiment: anti-FLAG co-IP LC-MS, exp 3, +IFNg +Dox
[23] = molecular target: AP-2 complex subunit beta (Homo sapiens) (UniProt P63010); experiment: anti-FLAG co-IP LC-MS, exp 3, +IFNg +Dox
[24] = molecular target: Plasminogen activator inhibitor 1 RNA-binding protein (Homo sapiens) (UniProt Q8NC51); experiment: anti-FLAG co-IP LC-MS, exp 3, +IFNg +Dox
[25] = molecular target: T-complex protein 1 subunit theta (Homo sapiens) (UniProt P50990); experiment: anti-FLAG co-IP LC-MS, exp 3, +IFNg +Dox
[26] = molecular target: Procollagen-lysine, 2-oxoglutarate 5-dioxygenase 3 (Homo sapiens) (UniProt O60568); experiment: anti-FLAG co-IP LC-MS, exp 3, +IFNg +Dox
Vimentin (Homo sapiens) = Vimentin (Homo sapiens) (UniProt P08670); experiment: anti-FLAG co-IP LC-MS, exp 3, +IFNg +Dox
[27] = molecular target: Endoplasmic reticulum chaperone BiP (Homo sapiens) (UniProt P11021); experiment: anti-FLAG co-IP LC-MS, exp 3, +IFNg +Dox
[28] = molecular target: Neutral cholesterol ester hydrolase 1 (Homo sapiens) (UniProt Q6PIU2); experiment: anti-FLAG co-IP LC-MS, exp 3, +IFNg +Dox
[29] = molecular target: Clathrin heavy chain (Homo sapiens) (UniProt Q00610); experiment: anti-FLAG co-IP LC-MS, exp 3, +IFNg +Dox
[30] = molecular target: Splicing factor 3B subunit 3 (Homo sapiens) (UniProt Q15393); experiment: anti-FLAG co-IP LC-MS, exp 3, +IFNg +Dox
[31] = molecular target: S-adenosylhomocysteine hydrolase-like protein 1 (Homo sapiens) (UniProt O43865); experiment: anti-FLAG co-IP LC-MS, exp 3, +IFNg +Dox
[32] = molecular target: D-3-phosphoglycerate dehydrogenase (Homo sapiens) (UniProt O43175); experiment: anti-FLAG co-IP LC-MS, exp 3, +IFNg +Dox
[33] = molecular target: 60S ribosomal protein L8 (Homo sapiens) (UniProt P62917); experiment: anti-FLAG co-IP LC-MS, exp 3, +IFNg +Dox
[34] = molecular target: Signal transducer and activator of transcription 3 (Homo sapiens) (UniProt P40763); experiment: anti-FLAG co-IP LC-MS, exp 3, +IFNg +Dox

Chain of Histone acetyltransferase type B catalytic subunit (Homo sapiens) (O14929 2-419 limits assumed): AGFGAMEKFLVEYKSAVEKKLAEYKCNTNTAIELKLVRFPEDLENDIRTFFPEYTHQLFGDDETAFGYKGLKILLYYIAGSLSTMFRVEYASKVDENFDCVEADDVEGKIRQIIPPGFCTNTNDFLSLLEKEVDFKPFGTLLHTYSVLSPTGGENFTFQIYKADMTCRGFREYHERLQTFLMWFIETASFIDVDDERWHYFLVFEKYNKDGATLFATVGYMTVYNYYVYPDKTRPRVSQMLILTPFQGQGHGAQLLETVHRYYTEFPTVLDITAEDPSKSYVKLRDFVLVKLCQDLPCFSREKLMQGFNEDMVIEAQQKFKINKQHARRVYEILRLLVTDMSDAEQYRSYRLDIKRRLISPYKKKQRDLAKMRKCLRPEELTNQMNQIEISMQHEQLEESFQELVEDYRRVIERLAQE
Chain of Heat shock protein HSP 90-beta (Homo sapiens) (P08238 2-724 limits assumed): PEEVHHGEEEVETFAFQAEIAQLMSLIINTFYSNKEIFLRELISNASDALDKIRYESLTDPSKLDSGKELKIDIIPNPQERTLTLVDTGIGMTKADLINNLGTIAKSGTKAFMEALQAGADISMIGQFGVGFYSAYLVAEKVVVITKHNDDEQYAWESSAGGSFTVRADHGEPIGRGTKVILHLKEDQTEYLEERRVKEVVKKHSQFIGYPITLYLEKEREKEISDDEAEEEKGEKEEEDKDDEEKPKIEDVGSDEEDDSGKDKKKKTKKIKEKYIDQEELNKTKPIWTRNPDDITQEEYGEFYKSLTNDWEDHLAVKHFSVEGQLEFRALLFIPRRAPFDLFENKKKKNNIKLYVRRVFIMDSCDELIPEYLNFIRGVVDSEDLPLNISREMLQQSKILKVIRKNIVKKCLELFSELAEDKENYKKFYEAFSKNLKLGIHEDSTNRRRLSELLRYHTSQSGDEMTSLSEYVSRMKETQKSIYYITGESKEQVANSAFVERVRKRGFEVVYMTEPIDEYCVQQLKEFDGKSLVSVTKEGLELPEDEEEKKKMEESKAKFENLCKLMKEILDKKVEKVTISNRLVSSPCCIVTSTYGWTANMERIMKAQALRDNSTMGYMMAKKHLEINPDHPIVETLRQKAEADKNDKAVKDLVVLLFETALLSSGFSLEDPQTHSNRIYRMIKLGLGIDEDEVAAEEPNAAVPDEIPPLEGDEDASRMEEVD
Chain of Prostate tumor-overexpressed gene 1 protein (Homo sapiens) (Q86YD1 whole entry, the tested form may be a part): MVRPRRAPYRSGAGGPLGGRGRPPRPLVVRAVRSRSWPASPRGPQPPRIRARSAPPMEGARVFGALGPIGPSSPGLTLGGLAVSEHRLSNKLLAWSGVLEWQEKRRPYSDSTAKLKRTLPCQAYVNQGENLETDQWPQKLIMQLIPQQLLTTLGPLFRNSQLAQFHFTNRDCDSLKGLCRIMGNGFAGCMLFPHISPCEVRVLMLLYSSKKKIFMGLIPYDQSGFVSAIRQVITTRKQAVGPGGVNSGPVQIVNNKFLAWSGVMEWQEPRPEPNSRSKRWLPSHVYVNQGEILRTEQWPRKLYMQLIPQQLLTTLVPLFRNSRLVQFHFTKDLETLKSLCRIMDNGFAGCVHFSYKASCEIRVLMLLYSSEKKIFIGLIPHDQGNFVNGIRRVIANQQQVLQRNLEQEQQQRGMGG
Chain of AP-2 complex subunit beta (Homo sapiens) (P63010 2-937 limits assumed, one chain of several): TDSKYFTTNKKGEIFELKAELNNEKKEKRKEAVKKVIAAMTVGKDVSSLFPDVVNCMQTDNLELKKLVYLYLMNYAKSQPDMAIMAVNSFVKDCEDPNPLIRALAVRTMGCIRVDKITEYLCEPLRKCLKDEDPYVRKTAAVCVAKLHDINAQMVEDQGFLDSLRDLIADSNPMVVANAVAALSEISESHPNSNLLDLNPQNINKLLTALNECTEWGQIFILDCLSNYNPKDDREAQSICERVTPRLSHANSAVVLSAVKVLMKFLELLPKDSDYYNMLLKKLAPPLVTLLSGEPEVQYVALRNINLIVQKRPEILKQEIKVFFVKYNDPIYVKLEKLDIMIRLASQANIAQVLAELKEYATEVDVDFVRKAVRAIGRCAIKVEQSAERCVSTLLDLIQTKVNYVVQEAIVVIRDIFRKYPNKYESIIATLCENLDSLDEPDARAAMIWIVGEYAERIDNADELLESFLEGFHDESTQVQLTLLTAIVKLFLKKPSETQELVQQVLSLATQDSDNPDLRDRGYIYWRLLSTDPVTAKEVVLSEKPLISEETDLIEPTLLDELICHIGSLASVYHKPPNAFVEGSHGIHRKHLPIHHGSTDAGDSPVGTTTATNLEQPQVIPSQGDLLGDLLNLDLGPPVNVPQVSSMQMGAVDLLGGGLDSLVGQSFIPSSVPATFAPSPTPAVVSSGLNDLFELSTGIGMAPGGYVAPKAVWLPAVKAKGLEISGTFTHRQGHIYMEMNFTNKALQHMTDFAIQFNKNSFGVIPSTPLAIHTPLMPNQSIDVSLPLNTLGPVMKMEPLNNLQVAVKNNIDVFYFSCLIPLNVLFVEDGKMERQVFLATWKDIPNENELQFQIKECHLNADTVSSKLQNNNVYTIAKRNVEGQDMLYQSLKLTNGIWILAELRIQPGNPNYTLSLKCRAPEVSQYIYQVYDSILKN
Chain of Serine/threonine-protein phosphatase 2A 65 kDa regulatory subunit A alpha isoform (Homo sapiens) (P30153 2-589 limits assumed): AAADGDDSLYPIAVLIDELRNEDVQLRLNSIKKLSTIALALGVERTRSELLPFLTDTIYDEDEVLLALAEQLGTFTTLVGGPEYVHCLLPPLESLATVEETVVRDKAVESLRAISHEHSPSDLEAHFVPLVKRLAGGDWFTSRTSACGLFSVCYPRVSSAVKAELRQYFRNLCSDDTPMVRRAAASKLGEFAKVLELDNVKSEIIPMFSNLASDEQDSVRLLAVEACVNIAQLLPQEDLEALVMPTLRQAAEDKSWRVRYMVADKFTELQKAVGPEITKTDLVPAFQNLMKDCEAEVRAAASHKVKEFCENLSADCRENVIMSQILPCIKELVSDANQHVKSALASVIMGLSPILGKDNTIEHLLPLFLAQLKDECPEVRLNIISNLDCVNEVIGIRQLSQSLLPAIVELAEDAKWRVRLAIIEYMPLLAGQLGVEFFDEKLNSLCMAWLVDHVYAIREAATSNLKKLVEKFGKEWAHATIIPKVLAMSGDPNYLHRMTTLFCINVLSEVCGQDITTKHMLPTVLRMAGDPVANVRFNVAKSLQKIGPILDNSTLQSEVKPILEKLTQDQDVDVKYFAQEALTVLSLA
Chain of Procollagen-lysine, 2-oxoglutarate 5-dioxygenase 3 (Homo sapiens) (O60568 25-738 limits assumed): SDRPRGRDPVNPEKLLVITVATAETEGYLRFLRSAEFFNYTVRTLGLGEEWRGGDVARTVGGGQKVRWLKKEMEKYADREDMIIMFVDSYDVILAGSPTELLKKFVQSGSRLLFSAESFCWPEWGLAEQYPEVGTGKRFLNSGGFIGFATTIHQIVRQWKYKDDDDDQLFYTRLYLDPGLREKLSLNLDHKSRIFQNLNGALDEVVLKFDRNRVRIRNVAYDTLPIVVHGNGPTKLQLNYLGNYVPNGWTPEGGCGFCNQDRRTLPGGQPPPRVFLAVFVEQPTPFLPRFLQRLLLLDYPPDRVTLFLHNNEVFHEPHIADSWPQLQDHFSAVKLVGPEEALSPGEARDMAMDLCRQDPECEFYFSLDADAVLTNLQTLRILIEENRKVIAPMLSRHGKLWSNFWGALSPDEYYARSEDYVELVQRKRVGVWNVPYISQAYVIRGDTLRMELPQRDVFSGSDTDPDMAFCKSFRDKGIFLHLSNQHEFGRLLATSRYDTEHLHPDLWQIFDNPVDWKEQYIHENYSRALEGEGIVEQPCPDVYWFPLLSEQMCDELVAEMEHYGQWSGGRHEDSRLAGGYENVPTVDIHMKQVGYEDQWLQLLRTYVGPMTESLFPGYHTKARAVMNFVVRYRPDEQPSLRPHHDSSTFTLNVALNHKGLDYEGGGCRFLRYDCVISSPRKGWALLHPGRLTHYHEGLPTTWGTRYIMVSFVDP
Chain of Tubulin alpha chain (Homo sapiens) (F5H5D3 entry or part of it limits assumed, form in doubt): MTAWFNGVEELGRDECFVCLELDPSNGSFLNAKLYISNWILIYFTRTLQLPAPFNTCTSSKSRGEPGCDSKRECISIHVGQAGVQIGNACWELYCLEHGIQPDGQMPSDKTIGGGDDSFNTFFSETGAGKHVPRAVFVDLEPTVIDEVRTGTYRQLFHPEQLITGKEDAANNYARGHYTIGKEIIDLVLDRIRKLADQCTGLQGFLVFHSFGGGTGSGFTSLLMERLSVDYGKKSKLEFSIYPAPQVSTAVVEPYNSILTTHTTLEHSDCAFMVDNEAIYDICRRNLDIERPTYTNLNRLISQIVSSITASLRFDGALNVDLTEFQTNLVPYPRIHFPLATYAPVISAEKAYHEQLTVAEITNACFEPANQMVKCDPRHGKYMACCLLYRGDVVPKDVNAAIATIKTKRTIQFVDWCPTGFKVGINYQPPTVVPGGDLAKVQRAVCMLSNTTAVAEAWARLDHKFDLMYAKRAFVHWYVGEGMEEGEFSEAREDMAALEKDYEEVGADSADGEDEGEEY
Chain of T-complex protein 1 subunit gamma (Homo sapiens) (P49368 whole entry, one chain of several): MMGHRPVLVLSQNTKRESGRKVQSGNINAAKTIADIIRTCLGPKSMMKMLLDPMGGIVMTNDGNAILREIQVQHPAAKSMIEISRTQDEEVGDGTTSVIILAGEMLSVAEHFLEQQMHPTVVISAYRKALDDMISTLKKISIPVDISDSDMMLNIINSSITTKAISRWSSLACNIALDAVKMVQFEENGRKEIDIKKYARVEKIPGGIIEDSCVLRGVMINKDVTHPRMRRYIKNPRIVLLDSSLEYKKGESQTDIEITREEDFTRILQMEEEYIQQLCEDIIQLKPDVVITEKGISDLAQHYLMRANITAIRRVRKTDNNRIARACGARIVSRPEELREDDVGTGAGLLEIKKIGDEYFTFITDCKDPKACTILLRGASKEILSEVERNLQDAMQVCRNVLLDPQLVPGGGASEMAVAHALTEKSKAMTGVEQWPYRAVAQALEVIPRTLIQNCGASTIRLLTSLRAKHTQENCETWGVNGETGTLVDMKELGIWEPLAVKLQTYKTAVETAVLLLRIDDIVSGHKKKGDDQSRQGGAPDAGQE

i3XFLAG-NLS-CTDaa154-424
PSMs [1]: 2 PSMs | PSMs [2]: 9 PSMs | PSMs [3]: 9 PSMs | PSMs [4]: 10 PSMs | PSMs [5]: 6 PSMs | PSMs [6]: 2 PSMs | PSMs [7]: 3 PSMs | PSMs [8]: 3 PSMs | PSMs [9]: 25 PSMs | PSMs [10]: 6 PSMs | PSMs [11]: 3 PSMs | PSMs [12]: 2 PSMs | PSMs [13]: 5 PSMs | PSMs [14]: 14 PSMs | PSMs [15]: 5 PSMs | PSMs [16]: 7 PSMs | PSMs [17]: 3 PSMs | PSMs [18]: 3 PSMs | PSMs [19]: 70 PSMs | PSMs [20]: 10 PSMs | PSMs (Filamin-C (Homo sapiens)): 7 PSMs | PSMs [21]: 14 PSMs | PSMs [22]: 39 PSMs | PSMs [23]: 26 PSMs | PSMs [24]: 3 PSMs | PSMs [25]: 2 PSMs | PSMs [26]: 2 PSMs | PSMs (Vimentin (Homo sapiens)): 45 PSMs | PSMs [27]: 62 PSMs | PSMs [28]: 11 PSMs | PSMs [29]: 11 PSMs | PSMs [30]: 3 PSMs | PSMs [31]: 11 PSMs | PSMs [32]: 3 PSMs | PSMs [33]: 2 PSMs | PSMs [34]: 3 PSMs
